Assay [1] concerns the target Human polyclonal immunoglobulin G (IgG), lyophilized, Equitech-Bio, Inc. (human). Description: affinity chromatography, yield = IgG eluted / IgG loaded; cycle 4, after two 0.1 M NaOH washes.
For assay [2] the target is unchanged. Description: affinity chromatography, yield = IgG eluted / IgG loaded; cycle 5, after three 0.1 M NaOH washes.
For assay [3] the target is unchanged. Description: affinity chromatography, yield = IgG eluted / IgG loaded; cycle 3, after the first 0.1 M NaOH wash (ligand partly leached).
For assay [4] the target is unchanged. Description: affinity chromatography, yield = IgG eluted / IgG loaded; cycle 2, after phosphoric acid regeneration, before any NaOH wash.
Assay [5] has the same target. As to the kind of experiment: affinity chromatography, IgG 10 mg/mL in cMEM loaded on 0.1 mL column, eluted with 0.2 M acetate pH 4; yield = IgG eluted / IgG loaded (Protein G HPLC); cycle 1, before any NaOH wash.
Assay [6] has the same target. Description: affinity chromatography of IgG from cMEM, yield = IgG eluted / IgG loaded; cycle 1, 0 washes with 1 M NaOH.
For assay [7] the target is unchanged. Description: affinity chromatography of IgG from cMEM, yield = IgG eluted / IgG loaded; cycle 10, 9 washes with 1 M NaOH.
The target is the same in assay [8]. As to the kind of experiment: affinity chromatography of IgG from cMEM, yield = IgG eluted / IgG loaded; cycle 1, 0 washes with 0.1 M NaOH.
The target is the same in assay [9]. As to the kind of experiment: affinity chromatography of IgG from cMEM, yield = IgG eluted / IgG loaded; cycle 1, 0 washes with 0.5 M NaOH.
The target is the same in assay [10]. Description: affinity chromatography of IgG from cMEM, yield = IgG eluted / IgG loaded; cycle 20, 19 washes with 1 M NaOH.
Assay [11] shares this target. As to the kind of experiment: affinity chromatography of IgG from cMEM, yield = IgG eluted / IgG loaded; cycle 30, 29 washes with 1 M NaOH.
Assay [12] has the same target. As to the kind of experiment: affinity chromatography of IgG from cMEM, yield = IgG eluted / IgG loaded; cycle 50, 49 washes with 1 M NaOH.
The target is the same in assay [13]. Description: affinity chromatography of IgG from cMEM, yield = IgG eluted / IgG loaded; cycle 25, 24 washes with 0.1 M NaOH.
For assay [14] the target is unchanged. Description: affinity chromatography of IgG from cMEM, yield = IgG eluted / IgG loaded; cycle 50, 49 washes with 0.1 M NaOH.
For assay [15] the target is unchanged. As to the kind of experiment: affinity chromatography of IgG from cMEM, yield = IgG eluted / IgG loaded; cycle 25, 24 washes with 0.5 M NaOH.
Assay [16] has the same target. Description: affinity chromatography of IgG from cMEM, yield = IgG eluted / IgG loaded; cycle 50, 49 washes with 0.5 M NaOH.
Assay [17] has the same target. As to the kind of experiment: affinity chromatography of IgG from cMEM, yield = IgG eluted / IgG loaded; cycle 75, 74 washes with 0.5 M NaOH.
Assay [18] has the same target. Description: affinity chromatography of IgG from cMEM, yield = IgG eluted / IgG loaded; cycle 100, 99 washes with 0.1 M NaOH.
For assay [19] the target is unchanged. As to the kind of experiment: affinity chromatography of IgG from cMEM, yield = IgG eluted / IgG loaded; cycle 100, 99 washes with 0.5 M NaOH.
Assay [20] has the same target. Description: affinity chromatography of IgG from cMEM, yield = IgG eluted / IgG loaded; cycle 200, 199 washes with 0.1 M NaOH.

No end group written: not given here. modified Toyopearl AF‑Amino‑650M resin = not defined here

Consider HWRGWV-{Toyopearl AF‑Amino‑650M resin} (also: coupled partly by amide, partly by ester bonds), for which the IgG yield in [1] came to 21%; in [2] it was 21%; in [3], 23%; in [4], 85%; in assay [5], 85%.

Take HWRGWVA-{modified Toyopearl AF‑Amino‑650M resin} (reading uncertain) [HWRGWV (SEQ ID NO: 1) synthesized on modified Toyopearl AF-Amino-650M resin (density 0.11 meq/g)]: the IgG yield in [6] was 88%; in assay [7], 84%; in assay [8], 91%; in assay [9] it was 89%; in [10], 82%; in [11], 79%. The IgG yield was determined as 76% in [12]; 90% in assay [13]; 88% in assay [14]; 87% in [15]; 85% in [16]; 82% in assay [17]. Moreover, the IgG yield in assay [18] was 87%; in assay [19], 80%; in assay [20] it was 85%.

The values above are taken from patent publication US20130165539A1.
